Results: US20260265410A1 (UNIVERSITY OF FLORIDA RESEARCH FOUNDATION, published 2026)
Where a chain is given by its changes, count along the chain named.

Assays:
[1] = target: T1, human Nectin-2 on the cell surface (U937 cells) (human, UniProt Q92692 32-538); assay: flow cytometry on whole U937 cells, screen of the 28 clones (Ctrl row = 0); Nectin-2 is named as the antigen on U937 cells only in the later examples
T1 construct: Endogenous Nectin-2 of U937 cells; also called PVRL2; CD112
T1 sequence: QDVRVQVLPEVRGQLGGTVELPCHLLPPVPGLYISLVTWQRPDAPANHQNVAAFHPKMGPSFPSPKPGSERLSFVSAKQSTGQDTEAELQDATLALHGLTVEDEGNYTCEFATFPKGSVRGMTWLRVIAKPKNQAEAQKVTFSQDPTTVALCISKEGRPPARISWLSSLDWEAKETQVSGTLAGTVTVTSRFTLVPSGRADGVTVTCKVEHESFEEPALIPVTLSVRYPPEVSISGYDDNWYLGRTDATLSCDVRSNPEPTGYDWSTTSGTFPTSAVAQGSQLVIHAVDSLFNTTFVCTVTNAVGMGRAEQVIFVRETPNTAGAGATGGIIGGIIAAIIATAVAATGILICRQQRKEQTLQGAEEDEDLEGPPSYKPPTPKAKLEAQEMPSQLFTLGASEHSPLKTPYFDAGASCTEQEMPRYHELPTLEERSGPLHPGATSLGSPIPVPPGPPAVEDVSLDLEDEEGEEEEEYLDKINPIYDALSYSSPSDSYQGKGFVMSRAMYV

[2] = target: T2, human Nectin-2 extracellular domain (amino acid residues 1-360 of human Nectin-2) fused to hFc (human, UniProt Q92692 32-360); assay: SPR, Fab on human Nectin-2-ECD-hFc, five concentrations
T2 construct: Bought; also called hNectin-2-ECD-hFc; NECTIN2-ECD-hFc; not shown: human Fc (hFc)
T2 sequence: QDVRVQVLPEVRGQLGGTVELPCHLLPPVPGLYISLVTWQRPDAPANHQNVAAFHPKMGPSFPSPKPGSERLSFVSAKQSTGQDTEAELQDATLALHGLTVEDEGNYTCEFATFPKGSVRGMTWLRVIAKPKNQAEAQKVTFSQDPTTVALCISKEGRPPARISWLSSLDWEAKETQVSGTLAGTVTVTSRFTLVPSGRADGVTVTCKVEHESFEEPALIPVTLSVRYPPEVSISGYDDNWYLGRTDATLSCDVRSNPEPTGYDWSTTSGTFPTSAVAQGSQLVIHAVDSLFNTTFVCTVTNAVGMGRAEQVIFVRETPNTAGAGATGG

[3] = target: T2, human Nectin-2 extracellular domain …; assay: SPR, summary table; antigen column hNectin2 ECD
[4] = target: T3, human CD105-ECD: amino acid residues Met 1-Gly 586 of human CD105 (Sino bio: Cat: 10149-H02H) (human, UniProt P17813 26-586); assay: ELISA, absorbance at 405 nm, one condition per Fab and antigen
T3 construct: Bought; also called hCD105-ECD-hFc; hCD105-hFc
T3 sequence: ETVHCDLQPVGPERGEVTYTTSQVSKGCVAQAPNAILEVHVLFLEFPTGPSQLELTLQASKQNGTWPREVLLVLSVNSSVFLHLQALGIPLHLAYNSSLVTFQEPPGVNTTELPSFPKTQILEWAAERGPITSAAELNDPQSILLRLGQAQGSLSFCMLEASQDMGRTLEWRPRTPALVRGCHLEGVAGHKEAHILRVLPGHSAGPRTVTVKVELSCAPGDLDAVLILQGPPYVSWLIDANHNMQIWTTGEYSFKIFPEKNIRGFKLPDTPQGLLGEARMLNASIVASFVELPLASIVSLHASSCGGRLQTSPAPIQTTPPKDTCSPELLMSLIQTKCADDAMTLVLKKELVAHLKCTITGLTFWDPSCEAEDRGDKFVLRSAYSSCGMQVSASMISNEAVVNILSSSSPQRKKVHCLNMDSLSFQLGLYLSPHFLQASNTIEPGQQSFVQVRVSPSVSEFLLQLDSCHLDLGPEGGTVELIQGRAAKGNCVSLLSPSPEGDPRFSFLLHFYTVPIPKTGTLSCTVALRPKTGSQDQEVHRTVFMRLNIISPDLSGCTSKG

[5] = target: T4, human PTPRG extracellular domain (ECD) (residues 20~736 of human PTPRG) fused to hFc (human, UniProt P23470 20-736); assay: as above
T4 construct: Produced in-house by transient transfection of Expi293 cells; also called hPTPRG-ECD-hFc; hPTPRG-ECD; not shown: human Fc (hFc)
T4 sequence: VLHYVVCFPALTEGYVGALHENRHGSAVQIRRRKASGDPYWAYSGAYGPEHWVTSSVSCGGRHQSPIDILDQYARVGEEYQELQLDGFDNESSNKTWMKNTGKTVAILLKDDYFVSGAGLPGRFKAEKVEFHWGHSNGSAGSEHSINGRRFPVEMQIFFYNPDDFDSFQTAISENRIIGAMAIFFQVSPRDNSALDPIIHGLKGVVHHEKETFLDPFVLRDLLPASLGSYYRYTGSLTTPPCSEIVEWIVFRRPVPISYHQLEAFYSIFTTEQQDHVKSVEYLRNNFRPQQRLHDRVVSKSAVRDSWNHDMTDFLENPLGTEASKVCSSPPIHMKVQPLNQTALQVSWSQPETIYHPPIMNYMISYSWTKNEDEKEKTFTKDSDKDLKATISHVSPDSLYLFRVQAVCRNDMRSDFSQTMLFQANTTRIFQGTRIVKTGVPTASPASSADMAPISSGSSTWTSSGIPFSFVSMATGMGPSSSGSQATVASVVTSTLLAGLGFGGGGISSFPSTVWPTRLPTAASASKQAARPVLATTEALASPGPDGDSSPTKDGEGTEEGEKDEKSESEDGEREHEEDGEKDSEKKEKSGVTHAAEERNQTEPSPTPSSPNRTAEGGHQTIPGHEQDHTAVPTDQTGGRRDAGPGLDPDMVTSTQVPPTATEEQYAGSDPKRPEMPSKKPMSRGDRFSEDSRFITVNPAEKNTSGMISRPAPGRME

[6] = target: T5, mouse PTPRG ECD (amino acid residues 20-733 of mouse PTPRG) fused to hFc (mouse, UniProt Q05909 20-733); assay: ELISA, one condition per Fab and antigen; y axis 0 to 1.8 without name or unit
T5 construct: Produced in-house; also called mPTPRG-ECD; Mouse PTPRG-ECD-hFc; not shown: human Fc (hFc)
T5 sequence: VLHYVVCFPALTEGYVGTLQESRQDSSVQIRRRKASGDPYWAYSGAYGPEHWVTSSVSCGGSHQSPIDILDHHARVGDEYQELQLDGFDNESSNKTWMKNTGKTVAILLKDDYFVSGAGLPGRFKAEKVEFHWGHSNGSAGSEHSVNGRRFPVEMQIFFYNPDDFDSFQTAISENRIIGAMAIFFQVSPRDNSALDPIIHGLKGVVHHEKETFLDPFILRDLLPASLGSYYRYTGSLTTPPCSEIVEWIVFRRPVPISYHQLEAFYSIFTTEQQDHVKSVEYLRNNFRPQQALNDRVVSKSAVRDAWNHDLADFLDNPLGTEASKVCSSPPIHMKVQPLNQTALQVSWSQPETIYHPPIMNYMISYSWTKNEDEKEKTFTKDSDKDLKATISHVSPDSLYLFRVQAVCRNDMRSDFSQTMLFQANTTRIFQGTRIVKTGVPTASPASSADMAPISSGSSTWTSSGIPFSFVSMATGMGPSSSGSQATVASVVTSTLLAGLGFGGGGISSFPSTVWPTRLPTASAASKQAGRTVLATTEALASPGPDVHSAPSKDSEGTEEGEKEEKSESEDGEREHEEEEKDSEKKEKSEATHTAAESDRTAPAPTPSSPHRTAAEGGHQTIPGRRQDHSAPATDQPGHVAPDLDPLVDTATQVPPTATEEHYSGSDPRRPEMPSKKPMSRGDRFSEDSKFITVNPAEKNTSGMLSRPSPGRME

[7] = target: T6, C-terminal domain (CTD) of human PTPRG (amino acid residues 349~736 of human PTPRG) (human, UniProt P23470 349-736); assay: as above
T6 construct: also called hPTPRG-CTD; human PTPRG carboxyl domain
T6 sequence: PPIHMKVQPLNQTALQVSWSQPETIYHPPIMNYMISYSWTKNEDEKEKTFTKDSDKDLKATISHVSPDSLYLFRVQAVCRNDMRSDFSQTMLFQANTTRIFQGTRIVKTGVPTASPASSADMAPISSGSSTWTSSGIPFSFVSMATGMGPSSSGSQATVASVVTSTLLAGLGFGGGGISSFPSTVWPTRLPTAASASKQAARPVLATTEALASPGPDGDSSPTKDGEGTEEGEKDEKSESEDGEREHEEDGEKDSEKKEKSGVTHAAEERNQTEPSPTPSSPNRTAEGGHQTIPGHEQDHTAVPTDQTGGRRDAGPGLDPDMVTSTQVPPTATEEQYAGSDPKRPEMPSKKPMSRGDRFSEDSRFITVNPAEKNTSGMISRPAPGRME

[8] = target: T7, human PTPRG on the cell surface (U937 cells, HEL cells) (human, UniProt P23470 20-1445); assay: flow cytometry on whole HEL cells, screen of the 28 clones (Ctrl row = 0); PTPRG is named as the antigen on HEL cells only in the later examples
T7 construct: Endogenous PTPRG of human AML cell lines

[9] = target: T7, human PTPRG on the cell surface (U937 …); assay: flow cytometry on whole U937 cells, screen of the 28 clones (Ctrl row = 0); PTPRG is named as the antigen on U937 cells only in the later examples
[10] = target: T2, human Nectin-2 extracellular domain …; assay: ELISA, absorbance at 405 nm, one condition per Fab and antigen

T7 sequence (P23470 20-1445): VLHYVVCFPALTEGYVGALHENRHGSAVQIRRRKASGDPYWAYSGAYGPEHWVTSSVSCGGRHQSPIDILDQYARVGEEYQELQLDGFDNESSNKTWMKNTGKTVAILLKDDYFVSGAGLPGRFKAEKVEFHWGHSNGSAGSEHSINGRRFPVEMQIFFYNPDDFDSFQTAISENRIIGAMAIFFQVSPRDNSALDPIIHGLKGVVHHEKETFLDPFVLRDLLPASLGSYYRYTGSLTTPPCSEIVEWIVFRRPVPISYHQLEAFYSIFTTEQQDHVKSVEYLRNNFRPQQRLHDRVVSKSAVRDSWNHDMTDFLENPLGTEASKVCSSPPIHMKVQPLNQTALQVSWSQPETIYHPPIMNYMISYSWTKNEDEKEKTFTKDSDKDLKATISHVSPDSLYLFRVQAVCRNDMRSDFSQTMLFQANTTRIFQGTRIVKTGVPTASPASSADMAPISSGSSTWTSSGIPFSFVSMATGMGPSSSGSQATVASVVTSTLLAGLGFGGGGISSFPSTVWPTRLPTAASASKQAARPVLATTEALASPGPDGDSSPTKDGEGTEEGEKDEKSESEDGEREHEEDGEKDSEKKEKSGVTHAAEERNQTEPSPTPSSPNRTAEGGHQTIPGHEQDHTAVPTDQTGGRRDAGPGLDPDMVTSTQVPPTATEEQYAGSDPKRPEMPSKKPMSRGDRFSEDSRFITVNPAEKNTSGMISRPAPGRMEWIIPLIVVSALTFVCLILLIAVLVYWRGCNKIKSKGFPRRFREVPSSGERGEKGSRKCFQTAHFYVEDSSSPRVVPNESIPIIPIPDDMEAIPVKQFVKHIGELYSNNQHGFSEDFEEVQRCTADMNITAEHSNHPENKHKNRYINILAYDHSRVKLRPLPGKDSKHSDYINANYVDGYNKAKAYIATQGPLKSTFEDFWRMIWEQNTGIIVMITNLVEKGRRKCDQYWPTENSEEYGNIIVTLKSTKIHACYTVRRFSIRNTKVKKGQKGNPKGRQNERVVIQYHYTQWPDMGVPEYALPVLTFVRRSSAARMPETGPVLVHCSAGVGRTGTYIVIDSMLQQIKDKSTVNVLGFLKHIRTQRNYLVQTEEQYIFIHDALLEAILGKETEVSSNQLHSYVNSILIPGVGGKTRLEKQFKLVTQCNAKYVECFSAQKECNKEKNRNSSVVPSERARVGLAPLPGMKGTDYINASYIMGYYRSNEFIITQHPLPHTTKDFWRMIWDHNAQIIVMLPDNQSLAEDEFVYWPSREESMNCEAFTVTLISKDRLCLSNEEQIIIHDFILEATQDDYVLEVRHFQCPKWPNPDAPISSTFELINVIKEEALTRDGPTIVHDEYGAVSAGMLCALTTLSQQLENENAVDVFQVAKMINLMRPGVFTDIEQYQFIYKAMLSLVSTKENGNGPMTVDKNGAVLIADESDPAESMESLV

B1: Fab_350 (Fab, V domains shown)
VH: QEQLEESGGRLVTPGTPLTLTCTASGFSLSSYHMSWVRQAPGKGLEWIGLINTGDSAYYASWAKGRFTISRTSTTVDLRITSPTTEDTATYFCARTFGDGFNLWGPGTLVTISS
VL: SFVLTQPASVQVDLGQTVSLTCTADTLSRSYASWYQQKPGQAPVLLIYRDTSRPSGVPDRFSGSSSGNTATLTISGAQAGDEADYYCATEDSGDSSYQYVFGGGTQLTVTG
notes: Chimeric rabbit/human Fab; also called N350; clone 350
[1]
  flow cytometry binding value (the table prints no name or unit): 89.3
[2]
  Kd: 67.5 nM
[3]
  Kd: 67.5 nM
  koff: 0.0077 s⁻¹
  kon: 114000 M⁻¹ s⁻¹

B2: Fab_2282 (Fab, V domains shown)
VH: QEQLKESGGRLVTPGTPLTLTCTASGFTISSYHMSWVRQAPGKGLEWIGVISASGGSTYYASWAKGRFTISKTSTTVDLKITSPTTEDTATYFCARESYGGYNLWGPGTLVTVSS
VL: B1 VL with D13N, T17M, S65T, E90D, S92N, G93S, D94G
notes: Chimeric rabbit/human Fab; also called N2282; mAb_2282
[1]
  flow cytometry binding value (the table prints no name or unit): 92.2
[4]
  binding result: no binding
[5]
  binding result: no binding

B3: Fab_1955 (Fab, V domains shown)
VH: AQSLEESGGRLVTPGTPLTLTCTASGFSLYSYDMSWVRQAPGKGLEWIGLIDGGGNTYYASWAKGRFTISKTSSTTVDLKMTSLTTEDTATYFCARELWPAYSSGAFNIWGPGTLVTISS
VL: B1 VL with D13N, S30R, S52R, A88V, E90T, S92G, G93S, D94G, Q98L, Y99V
notes: Chimeric rabbit/human Fab; also called P1955; clone 1955
[6]
  binding result: binds
[7]
  binding result: no binding
[8]
  flow cytometry binding value (the table prints no name or unit): 12.9
[9]
  flow cytometry binding value (the table prints no name or unit): 91.3
[4]
  binding result: no binding
[10]
  binding result: no binding

B4: Fab_277 (Fab, V domains shown)
VH: AQSLEESGGRLVTPGTPLTLTCTASGFTLSSYHMSWVRQAPGKGLEWIGIISSGGSIYYASWAKGRFTISRTSTTVDLKMTSPTTEDTATYFCARYAAYSIGMDLWGPGTLVTVSS
VL: B1 VL with S1Q, D13N, T17M, S65T, E90D, S92N, G93S, D94G
notes: Chimeric rabbit/human Fab; also called N277
[1]
  flow cytometry binding value (the table prints no name or unit): 87.8
[4]
  binding result: no binding
[5]
  binding result: no binding

B5: Fab_2430 (Fab, V domains shown)
VH: AQSLEESGGRLVTPGTPLTLTCTVSGIDLSSYHMNWVRQAPGKGLEWIGIIGASAGTYYARWAKGRFTISKTSTTVDLKITSPTTEDTATYFCARSGGSMQLNLWGPGTLVTISS
VL: B1 VL with D13N, E90D, G93S, D94G
notes: Chimeric rabbit/human Fab; also called N2430
[1]
  flow cytometry binding value (the table prints no name or unit): 92.6
[4]
  binding result: no binding
[5]
  binding result: no binding
